This note sets out measurements from patent US20240199761A1 (AstraZeneca / MedImmune, published 2024).

The target in experiment [1] is T1, recombinant human PAD2 (human, UniProt Q9Y2J8 1-665, enzymatically biotinylated on an Avi-tag).
T1 construct: Recombinant, biotinylated on an Avi-tag and captured on streptavidin; also called peptidyl arginine deiminase 2
Description: SPR (Biacore 8K), biotinylated PAD2 on streptavidin chip, Fab flowed over. A general note: SPR reads the build-up and loss of mass on a sensor chip optically.

The target in experiment [2] is T2, recombinant mouse PAD2 (mouse, UniProt Q08642 1-673, enzymatically biotinylated on an Avi-tag).
T2 construct: Recombinant, biotinylated on an Avi-tag
The experiment is described as above.

In a further experiment the target is T3, recombinant mouse PAD4 (mouse, UniProt Q9Z183 1-666).
T3 construct: Recombinant
Description: SPR; biotinylated antibody captured on C1-streptavidin, PAD4 flowed over.

The target in experiment [3] is T4, recombinant mouse PAD2 (mouse, UniProt Q08642 1-673).
T4 construct: Recombinant and tagged
Description: ratio of SPR KDs, mouse PAD2 against human PAD2; antibody captured on C1-Protein G', PAD flowed over.

Experiment [4] addresses recombinant human PAD2 (human, UniProt Q9Y2J8 1-665). Description: cell-based or functional assay.
Experiment [5] has as its target T5, mouse PAD2, recombinant, tags at the N-terminus (mouse, UniProt Q08642 1-673, enzymatically biotinylated on an Avi-tag where captured on streptavidin).
T5 construct: not shown: N-terminal tags incl; Avi-tag
Description: SPR; antibody on C1-Protein G', PAD2 flowed over.

For experiment [6], the target named is T6, human PAD2, recombinant, tags at the N-terminus (human, UniProt Q9Y2J8 1-665, enzymatically biotinylated on an Avi-tag where captured on streptavidin).
T6 construct: not shown: N-terminal tags incl; Avi-tag
The experiment in a line: SPR; antibody on C1-Protein G', PAD2 flowed over.

The target of experiment [7] is T7, cynomolgus PAD2, recombinant, tags at the N-terminus (cynomolgus, UniProt G7NUR0 1-665, enzymatically biotinylated on an Avi-tag where captured on streptavidin).
T7 construct: also called Cyno PAD2; not shown: N-terminal tags incl; Avi-tag
The experiment in a line: SPR; antibody on C1-Protein G', PAD2 flowed over.

Experiment [8] addresses T5, mouse PAD2, recombinant, tags at the …. Description: SPR; antibody captured on a surface, PAD2 flowed over.
In experiment [9] the target is T6, human PAD2, recombinant, tags at the …. The experiment is described as above.
Experiment [10] has as its target T7, cynomolgus PAD2, recombinant, tags at …. Described as above.
Experiment [11] has as its target recombinant human PAD2 (human, UniProt Q9Y2J8 1-665, enzymatically biotinylated on an Avi-tag (when captured on the SPR chip)). Description: cell-based or functional assay.
Experiment [12] addresses T5, mouse PAD2, recombinant, tags at the …. Description: SPR; antibody on C1-Protein G', PAD2 flowed over. The source holds these as a separate data set.
In experiment [13] the target is T6, human PAD2, recombinant, tags at the …. The experiment in a line: SPR; antibody on C1-Protein G', PAD2 flowed over. This is another data set of the same source.
Experiment [14] concerns the target T7, cynomolgus PAD2, recombinant, tags at …. Description: SPR; antibody on C1-Protein G', PAD2 flowed over. The source holds these as a separate data set.
The next experiment concerns the target T8, huFcRn (human, UniProt P55899 24-297; P61769 21-119, limits assumed).
T8 construct: also called human neonatal Fc receptor
The experiment in a line: huFcRn affinity chromatography, pH gradient elution.

B1: PAD40175 hIgG1 ngl-2 (anti-PAD2) Fab (Fab, V domains shown)
VH: not shown
VL: QAVLTQPSSVSVAPGKTATITCGGDNIGSKSVHWYQQKPGQAPLLVIFYDTDRPSGVPERFSGSNSGNTATLTISRVEAGDEADYYCQVWDSNGDHYVFGTGTKLTVL
notes: Tested as Fab
With B1, the Kd is 6.73 nM in the experiment with recombinant human PAD2 [1] and 2.35 nM with recombinant mouse PAD2 [2].

B2: AB1630205 (mouse anti-PAD4) (antibody, V domains shown)
VH: EVQLVESGGGLVKPGGSRKLSCAASGFTFSDYGMHWVRQAPEKGLEWVAYISSGSSTIYYADTVKGRFTISRDNAKNTLFLQMTSLRSEDTAMYYCTRTYYDDAMDYWGQGTSVTVSS
VL: SIVMTQTPKFLLVSAGDRVTITCKASQSVSNDVVWYQQKPGQSPKLLISYASNRYTGVPDRFTGSGYGTDFTFTISSVQAEDLAVYFCQQDYSSPWTFGGGTKLEIK
notes: Biotinylated antibody captured on the chip
For the molecule B2, in the experiment with recombinant mouse PAD4, the Kd is 0.094 nM, the koff was found to be 0.000106 s⁻¹ and the kon is 1.14e+06 M⁻¹ s⁻¹.

B3: Clone 22 (IgG) (141LO0035 hIgG1 pgl-4) (antibody, V domains shown)
VH: not shown
VL: SYVLTQPPSVSVSPGQTASITCSGDKVGDKYVSWYQQKPGQSPVLVIYQDSQRPSGIPERFSGSNSGNTATLTISGTQAMDEADYYCQTWAPDVLLFGSGTKVTVL
notes: also called PAD2 IgG
In the case of B3, in the experiment with recombinant mouse PAD2 [3], the “fold difference in KD, mouse/human” value is 1.2 fold. Besides, the “Potency (IC50), Histone-H3 assay” value in the experiment with recombinant human PAD2 [4] turned out to be 0.138 nM.

B4: anti-PAD2 Clone 22 (141LO0035 hIgG1 pgl-4), IgG (antibody, V domains shown)
VH: not shown
VL: SYVLTQPPSVSVSPGQTASITCSGDKVGDKYVSWYQQKPGQSPVLVIYQDSQRPSGIPERFSGSNSGNTATLTISGTQAMDEADYYCQTWAPDVLLFGSGTKVTVL
notes: also called Clone 22 (IgG)
B4: the Kd in [5] was found to be 0.00459 nM; in [6], 0.0039 nM; in experiment [7], 0.011 nM; in experiment [8], 0.00459 nM; in [9], 0.0039 nM; in experiment [10], 0.011 nM. Further, the koff in experiment [8] was 2.24e-05 s⁻¹; in experiment [9] it was 1.71e-05 s⁻¹; in experiment [10] it was 3.33e-05 s⁻¹. The kon in experiment [8] came out at 4.93e+06 M⁻¹ s⁻¹; in experiment [9] it was 4.36e+06 M⁻¹ s⁻¹; in experiment [10] it was 3.06e+06 M⁻¹ s⁻¹.

B5: Clone 22 (141LO0035 hIgG1 pgl-4), anti-PAD2, as IgG (antibody, V domains shown)
VH: not shown
VL: SYVLTQPPSVSVSPGQTASITCSGDKVGDKYVSWYQQKPGQSPVLVIYQDSQRPSGIPERFSGSNSGNTATLTISGTQAMDEADYYCQTWAPDVLLFGSGTKVTVL
With B5, the “potency (IC50), Histone-H3 citrullination ELISA, recombinant PAD2” value (shortened to “potency (IC50) … recombinant PAD2”) in the experiment with recombinant human PAD2 [11] was under 1 nM.

B6: 141LO0002 hIgG1 pgl-4 (anti-PAD2) Fab (Fab, V domains shown)
VH: not shown
VL: SYVLTQPPSVSVSPGQTASITCSGDKVGDKYVSWYQQKPGQSPVLVIYQDSQRPSGIPERFSGSNSGNTATLTISGTQAMDEADYYCEVGVDYEYVFGSGTKVTVL
In the case of B6, the Kd in the experiment with recombinant human PAD2 [1] came to 2.78 nM; with recombinant mouse PAD2 [2], 38.5 nM.

B7: AB1630204 (mouse anti-PAD4) (antibody, V domains shown)
VH: QVQLQQPGAELVKPGASVKLSCKASGYTFTSYWMHWVKQRPGRGPEWIGRIDPNSGGTKYNEKFKSKAILTVDKPSSTAYMQLSSLTSEDSAVYYCAREGGDYWYFDVWGAGTTVTVSS
VL: QIVLTQSPALMSASPGEKVTMTCSANSGLRYMYWYQQKPRSSPKPWIYLTSNLASGVPARFSGSGSGTSYSLTISSMEAEDAATYYCQQWSSIPPTFGAGTKLELK
notes: as for B2
With B7, in the experiment with recombinant mouse PAD4, the Kd is 1.31 nM, the koff worked out at 0.000314 s⁻¹ and the kon amounted to 239000 M⁻¹ s⁻¹.

B8: Clone 07 (Bis3, TM; PAD4 Fab, PAD2 scFv) (bispecific antibody, human IgG1, lambda)
heavy: not shown
light: QSALTQPRSVSGSPGQSVTISCTGTSGDVGRYSHVSWYQQHPGKAPKLIIYNVYERPSGVPDRFSGSKSGNTASLTISGLQAEDEADYYCSSHSRSSTPVLFGGGTKLTVLGQPKAAPSVTLFPPSSEELQANKATLVCLISDFYPGAVTVAWKADSSPVKAGVETTTPSKQSNNKYAASSYLSLTPEQWKSHRSYSCQVTHEGSTVEKTVAPTECS
Regarding B8, the “potency (IC50) … recombinant PAD2” value with recombinant human PAD2 [11] was under 1 nM.

B9: Clone 07, Bis3 anti-PAD4 Fab / anti-PAD2 scFv, Fc TM (bispecific antibody, human IgG1, lambda)
heavy: not shown
light: QSALTQPRSVSGSPGQSVTISCTGTSGDVGRYSHVSWYQQHPGKAPKLIIYNVYERPSGVPDRFSGSKSGNTASLTISGLQAEDEADYYCSSHSRSSTPVLFGGGTKLTVLGQPKAAPSVTLFPPSSEELQANKATLVCLISDFYPGAVTVAWKADSSPVKAGVETTTPSKQSNNKYAASSYLSLTPEQWKSHRSYSCQVTHEGSTVEKTVAPTECS
notes: Bivalent for PAD2 and for PAD4; also called Clone 7*; PAD240007
For B9, the Kd in experiment [5] was 0.0162 nM; in experiment [6], 0.0161 nM; in experiment [7], 0.0219 nM; in experiment [12], 0.0162 nM; in experiment [13], 0.0161 nM; in [14], 0.0219 nM. Also, the koff in experiment [12] is 4.45e-05 s⁻¹; in [13], 3.21e-05 s⁻¹; in [14] it was 5.46e-05 s⁻¹. Also, the kon amounted to 2.76e+06 M⁻¹ s⁻¹ in [12], 2e+06 M⁻¹ s⁻¹ in experiment [13] and 2.61e+06 M⁻¹ s⁻¹ in experiment [14].

B10: Clone 07 (Bis3, TM; Fab anti-PAD4, scFv anti-PAD2) (bispecific antibody, human IgG1, lambda)
heavy: not shown
light: QSALTQPRSVSGSPGQSVTISCTGTSGDVGRYSHVSWYQQHPGKAPKLIIYNVYERPSGVPDRFSGSKSGNTASLTISGLQAEDEADYYCSSHSRSSTPVLFGGGTKLTVLGQPKAAPSVTLFPPSSEELQANKATLVCLISDFYPGAVTVAWKADSSPVKAGVETTTPSKQSNNKYAASSYLSLTPEQWKSHRSYSCQVTHEGSTVEKTVAPTECS
notes: Bivalent bispecific IgG-HC-scFv; also called Clone 7*; PAD240007
B10: in the experiment with huFcRn, the “HPLC retention” value turned out to be 17.8 min and the Relative retention was -0.081. Besides, the “fold difference in KD, mouse/human” value in the experiment with recombinant mouse PAD2 [3] came out at 1 fold. Besides, in the experiment with recombinant human PAD2 [4], the “Potency (IC50), Histone-H3 assay” value is 0.238 nM.

B11: Clone 08 (Bis3, TM; PAD2 Fab, PAD4 scFv) (bispecific antibody, human IgG1, lambda)
heavy: not shown
light: SYVLTQPPSVSVSPGQTASITCSGDKVGDKYVSWYQQKPGQSPVLVIYQDSQRPSGIPERFSGSNSGNTATLTISGTQAMDEADYYCQTWAPDVLLFGSGTKVTVLGQPKAAPSVTLFPPSSEELQANKATLVCLISDFYPGAVTVAWKADSSPVKAGVETTTPSKQSNNKYAASSYLSLTPEQWKSHRSYSCQVTHEGSTVEKTVAPTECS
In the case of B11, the “potency (IC50) … recombinant PAD2” value in the experiment with recombinant human PAD2 [11] is under 1 nM.

Broadly, the Kd is the equilibrium constant for the complex coming apart. What is called koff is the first-order rate constant of dissociation. Usually kon stands for the rate constant with which the complex forms.
